The values that follow come from PMC11127010 (Proceedings of the National Academy of Sciences of the …, 2024).

Where only a bound is given, the exact number is not on record here.

This data set concerns the molecule itself. The experiment in a line: SEC-MALS.

B1: hSTIM1-WT EF-SAM domain (aa58 to 201) (domain or fragment)
chain: SEDEKLSFEAVRNIHKLMDDDANGDVDVEESDEFLREDLNYHDPTVKHSTFHGEDKLISVEDLWKAWKSSEVYNWTVDEVVQWLITYVELPQYEETFRKLQLSGHAMPRLAVTNTTMTGTVLKMTDRSHRQKLQLKALDTVLFG
With B1, the “stoichiometry N” value was no less than 2.

B2: hSTIM1 EF-SAM domain (aa58 to 201) α9-mutant (V178A-L179A) (domain or fragment)
chain: SEDEKLSFEAVRNIHKLMDDDANGDVDVEESDEFLREDLNYHDPTVKHSTFHGEDKLISVEDLWKAWKSSEVYNWTVDEVVQWLITYVELPQYEETFRKLQLSGHAMPRLAVTNTTMTGTAAKMTDRSHRQKLQLKALDTVLFG
With B2, the “stoichiometry N” value was no less than 2.
